Laboratory results as given in the supplement of paper PMC9170038.

Test system: MS2 coat protein
Assay: apparent KD of MS2 coat protein; higher = weaker reporter binding
Settings: Eterna round: R107
Method: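 RNA-MaP round R107: designed RNA switches with theophylline, tryptophan, arginine or FMN aptamers are transcribed on-chip within common flanks. They are titrated with SNAP-549-labelled MS2 coat protein in RNA-MaP buffer (100 mM Tris pH 7.5, 80 mM KCl, 4 mM MgCl2), without ligand or with the indicated ligand. Median apparent KD per design.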

[1] = input ligand: theophylline 20 uM
[2] = input ligand: theophylline 2 mM
[3] = input ligand: tryptophan 2.4 mM

Sequence	apparent KD of MS2 coat protein (input ligand: arginine 13.2 mM) [nM]	apparent KD of MS2 coat protein (input ligand: none) [nM]	apparent KD of MS2 coat protein [1] [nM]	apparent KD of MS2 coat protein [2] [nM]	apparent KD of MS2 coat protein [3] [nM]
AUACAUGAGGAUCACCCAUGUUAUAGUGAAGGAGCGACAUUUAGGUCAGGUAGGUCGCACUAUUGAAUUAUUAUCCUUAUUUCUU [JR_ExcArginiA_Sub020]	16.1	14	22	15.5	15.7
UGAUCCUACAGAGAUACCAGUGCCACUGAGUGACCAGACACAUGAGGAUCACCCAUGUAACACCCUUGGCAGCUCAACUAGAGGG [Same State Theophylline B GF18]	16.8		22.3		19.7
UGACAUUGCUCAGAUACCAGACAUGAGGAUCACCCAUGUGCCAAACGUACAAUAAUAAAUGUCCCUUGGCAGCUGAGCAAUGUCU [TheoBX 14 #MS2Left #Theo2]	13.4		17.3		11.6
GCCAGUCAUAGCAGGGCAAAUAUACUCGAAGGAGCGUCAUAGUAGGCAGGUAGGUCGCGAGACAUGAGGAUCACCCAUGUAGAGA [fffmullin]	30.2	47.4	59.8	48.3	32.8
CUGGCAGGAUUCUCAGCUGUCAGGGCUGAUACCAGCCACGAAAGUGGCCCUUGGCAGCAGCAAACAUGAGGAUCACCCAUGUAAU [(T)''-(M)'-(T)'-(Theo)-(Ms2)_Design1]	279	470	364	46.3	208
AGACAUGAGGAUCACCCAUGUAGUACGGAUACCAGAUCCAGAUGCGUCCCUUGGCAGCUGUGGUACAGCGUUACAUCGCUCGUAG [Exclusion - Theophylline A (Freestyle 23)]	16		29.9		18.6
UAAUAAUCCAGGGUGUAGGUAAUAACAGAUACCAGCCAGAUAACUGGCCCUUGGCAGCUGAAAACCUGAGGAUCACCCAGGUAAA [TheoAS 23 #OpenEnded #MS2Late #AlternativeMS2]	36.4	56.2	122	67.7	62.6
UGCAUGAUCUGAAGGAGCGUGUAUGAUGAUAACAUGAGGAUCACCCAUGUCGAGACGGUAACACAGGUAGGUCGCAGAUCAUGCU [Arg B SS t4]	21.4	23.2	31.7	28.3	24.7
CAAACAUGAGGAUCACCCAUGUAAACCGAAGGAGCGACGCAUAAGUCAGGUAGGUCGCGGAAGAUAAAAUAGAACACUGGGCACA [Same State Arginine A GF1]	18.2	17.7	19.2	17.3	19.1
AACUGGACCAGUGAUACCAGAGACAUGAGGAUCACCCAUGUACAUGAGGAUCACCCAUGUCUCCCUUGGCAGCACAGCAGGGAGC [Exclusion Theophylline B Gf12]	66	117	109	720	119
GAGCUGAUGUAGAGCUUAUAUAAGAGAGAUACCAGUACAGAAAUGUACCCUUGGCAGCUCAACUUUACAUGAGGAUCACCCAUGU [Ex Theophylline A 20]	12.3	12.6	16	23.6	18.1
GGGCCCGGGCGCGAGCCCGGGCCCAUUGAUACCAGUGAUAUAUAGCGCCCUUGGCAGCGAAUCCUAACAUGAGGAUCACCCAUGU [5.I]	23.7	38.8	65.2	53.2	42.7
AUAACAUGAGGAUCACCCAUGUAUUGGUAACGAGGACCGGUACGGCCGCCACUCGAAUUUUGGUGGUAUAAUAUAUAUAUGAUUA [JR_SSTryptoA_Sub016]	17.4		25.4	18.8	
ACUCGAGGUGGAAGGAGCGGGAGACAUGAGCAUCACAUGAGGAUCACCCAUGUAGGAUCAUCCCAGGUAGGUCGCCAUGUCGAAA [avtamullin]	105	217	147	276	165
AGAUUACAUGUUUUAAUACGGAAAACUGAUACCAGUGUAUCUAUUCACCCUUGGCAGCAGCAACAUGAGGAUCACCCAUGUAUUA [JR_SSTheophyA_Sub016]	17.9		21.5		20
UCGCUCGCCGAAAGGCGAGCGAGUUGCGAUACCAGCCCGGAAACGGGCCCUUGGCAGCGCACAUGAGGAUCACCCAUGUCAUGUU [#1 Exclusion - Theophylline A Attempt #3 (HarryS)]	13.4	19.4	25.3	58.7	31.3
ACAUGAGGAUCACCCAUGUUCCUCAUUGAUACCAGUGAAUUUAGACGCCCUUGGCAGCGAGUUUUUUUAUAAGAAGUUUUUUUUU [6.G]	280		659		900
GUACAUGAGGAUCACCCAUGUAUAGUUGAAGGAGCGACCGGUGGGUCAGGUAGGUCGCAGCGCAUGGCGUCCACGCGUGUAUGCC [#1 Exclusion - Arginine A Attempt #29 (Inspired by Pi)]	10.3	12.3	17.1	11.1	11.9
CUCGGUUGAUCCUAGCUGCCGAGAGGUGAUACCAGCAUCGAAAGAUGCCCUUGGCAGCACCAACAUGAGGAUCACCCAUGUAAUA [(MT)''-(M)'-(T')-(Theo)-(Ms2)_Design1/22_5]	30.2		156		30.1

Sequence	apparent KD of MS2 coat protein (input ligand: arginine 13.2 mM) [nM]	apparent KD of MS2 coat protein (input ligand: none) [nM]	apparent KD of MS2 coat protein [1] [nM]	apparent KD of MS2 coat protein [2] [nM]	apparent KD of MS2 coat protein [3] [nM]
GGGCCCGGGCGCGAGCCCGGGCCCAUUGAUACCAGUGAGAGAGAGCGCCCUUGGCAGCGAAUCCUAACAUGAGGAUCACCCAUGU [5.N]	49.5	51.6	84.6	84.3	41.6
UUACAACUAAUGGAUACCAGCCGCGUGCUAGUGGUAGCAUACAUGAGGAUCACCCAUGUCGGCCCUUGGCAGCCACGCCCAUGCU [theeternabot_exclusion_MS2_Theo_B_2]	13.7		21.7		14.2
AUACAUGAGGAUCACCCAUGUCACACAGAAGGAGCGGCUGUAGAGCCAGGUAGGUCGCUGUACUGAAAAUACUUCAUACUCAUGU [#30 Exclusion - Arginine A]	21.7	59.6	43	32.3	26.1
ACACGAAGCUGAAGGAGCGUGGUAUAAAUUUUUACAUGAGGAUCACCCAUGUUUCAUCAAUCACAGGUAGGUCGCAGAUGCGUGA [JR_SSArginiB_Sub014]	19.6	14.1	18.6	20.2	15.9
GCUGCAGCUACGGCCGCCACUGUUACGUGAGACAUGAGGAUCACCCAUGUUGAUGUUUUACGGUAUAGGACCGGGUAGUUGUAGU [E 1.0]	9.08		11.8	10.3	
GGGCGACAUGAGGAUCACCCAUGUGUCGAUACCAGUAUGAAUUUCUACCCUUGGCAGCGACGACACGGUUAUUUGUGCACUUCGA [theeternabot_sameState_MS2_Theo_A_5]	77.5		114		95.6
UGUAUGUGAUCUGAUACCAGAGUGAAUAAACGCGAAAGCGCCUGAGGAUCACCCUGGUAACUCCCUUGGCAGCAGAUCGCAUACU	119	569	789	74.5	1390
GUAGCUAUCGCGGCCGCCACUAAACCGGAAACGGAACAGUAGGAUCACCAUUGUGGCGAAAGCCAUAGGACCGGGCGAUAGCUAC [TryBS - Double Magnet system 2]	601	502	830	1210	80
ACGAUAGGACCUGAGGAUCACCCUGGUGAUACCAGCCUGGAAACAGGCCCUUGGCAGCACAAAUACUCCAAUAACCUAUCGAAUA [TheoAX 13 #MicroSwitchBubble #AlternativeMS2]	245	611	698	1100	1070
GGGCUGUGACCAGGAAAUGGUCACAGCCCACGAGGACCGGUACGGCCGCCACUCGAAAGUACAUGAGGAUCACCCAUGUCGGUGG [#1 Same State - Tryptophan A Attempt #8 (HarryS)]	25.9	34.1	30.6	37.9	50.9
GACCUUAUCUGAAGGAGCGAGGUAAAUAGGGAUGAGCAUACAUGAGGAUCACCCAUGUGGCCUCAGGUAGGUCGCAGAUGAGAUU [Exclusion Arginine B GF27]	77.5	113	155	149	105
AGUCUGGACUCGGCCGCCACUCGUGAUGCUUUGGCACAUGAGGAUCACCCAUGUGGUCGGCCUUAGAGGACCGGGAGUACCAGCU [Zaraoned]	38.6		65.9	61.3	
UCGUUUGAGGCGGCCGCCACUGGUCUCAUGGUCAACAUGAGGAUCACCCAUGUAUCUUUGCUAAGCAGGACCGGGCCUCGAGCGA [#19 Exclusion Tryptophan B]	43.5		87.4	87.5	
AACAACAAGGGAAGGAGCGCGAAUAAUAGACAUGAGGAUCACCCAUGUAUCAUGGGAUUAACGCAGGUAGGUCGCCCACAAACAA [#07 Exclusion - Arginine B]	60.4	127	155	152	71.7
ACAUGAGUGGAUAAUAAAUAAGAAGGCGAAGGAGCGUGAAGAAUCACAGGUAGGUCGCGCAAAAUACAUGAGGAUCACCCAUGUU [JR_Nu_ExcArginiA_Sub031]	22.5	27.6	35.3	29.8	25.9
AUCGUACCUGAUGAUACCAGCAUGUGCUCGUAACAUGAGGAUCACCCAUGUGAUCAGUAAUGCCCUUGGCAGCAUGAUCGGUACA [Same State - Theophylline B (Freestyle 17)]	58.8		46.9		50.8
GGCCCGGACUUGGAAUGGGUGUUUCCCUCACGAGGACCGGUACGGCCGCCACUCGAAGACAUGAGGAUCACCCAUGUAGUCGACA [Qudirate]	31.2		78	138	
UGAAAGUAGGGAAGGAGCGCUACAACAUGAGGAUCACCCAUGUUAUGAGGAUCACCCGUGUGGCAGGUAGGUCGCCCAAAACAUG [#13 Same State - Arginine B]	40.6	43.9	46.7	35.6	31.9
AUACCUAGUGAGUCGUGUUUCUUUUCAGAUACCAGACUUUUCGUUGUCCCUUGGCAGCUGUUUUACAUGAGGAUCACCCAUGUUG [JR_ExcTheophyA_Sub007]	16.1		18.4		15.2
